Test results taken from the nanobody polyreactivity screen of Harvey et al. (2022).

Assay: yeast display, Sf9 membrane polyspecificity reagent, FACS + sequencing; frameworks hold sequencing errors
Summary of the method: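 Sorting gates, low and high (top ~1%), were placed on anti-HA fluorescence to track expression and on streptavidin fluorescence to track reagent binding. A clone's polyreactivity label is taken from the gate it came out of. The reagent was 10% biotinylated, detergent-solubilized Sf9 membrane, applied for 1 hour at 4 °C to galactose-induced yeast display cells.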

| Sequence | polyreactivity (PSR sort gate) |
| --- | --- |
| QVQLVESGGGLVQAGGSLRLSCAASGSTFEIYAMGWYRQAPGKERELVATITWSGGSTYYADSVKGRFTISRDNAKNTVYLQMNSLKPEDTAVYYCAAESIYYPVAQYYYSFEYWGQGTQVTVSS | low polyreactivity |
| QVQLVESGGGLVQAGGSLRLSCAASGSTFEIYVMGWYRQAPGKERELVAAISRVGNTSYADSVKGRFTISRDNAKNTVYLQMNSLKPEDTAVYYCAADAPSWYDRQYDYWGQGTQVTVSS | low polyreactivity |
| QVQLVESGGGLVQAGGSLRLSCAASGSTFELYAMGWYRQAPGKERELVASITGDSTNYADSVKGRFTISRDNAKNTVYLQMNSLKPEDTAVYYCAKPYYDGRTHFDSWGQGTQVTVSS | low polyreactivity |
| QVQLVESGGGLVQAGGSLRLSCAASGSTFEPYAMGWYRQAPGKERELVAAISWSGGSTYYADSVKGRFTISRDNAKNTVYLQMNSLQPEDTAVYYCAAESGVPYYLPVVIYYYWGQGTQVTVSS | high polyreactivity |
| QVQLVESGGGLVQAGGSLRLSCAASGSTFEPYAMGWYRQAPGKERELVATITLRGGTTNYADSVKGRFTISRDNAKNTVYLQMNSLKPEDTAVYYCNARKLTGYIRYRTGKMNYWGQGTQVTVSS | high polyreactivity |
| QVQLVESGGGLVQAGGSLRLSCAASGSTFERYAMGWYRQAPGKERELVAAITWGGGSTNYADSVKGRFTISRDNAKNTVYLQMNSLKPEDTAVYYCAREWRTRIYYYWGQGTQVTVSS | low polyreactivity |
| QVQLVESGGGLVQAGGSLRLSCAASGSTFEVYAMGWYRQAPGKEREMVAAINSRGTSTYYADSVKGRFTISRDNEKNTVYIQMNSLKPEDTAVDFCAARHVYYSGYDYWGQGTQVTGSS | low polyreactivity |
| QVQLVESGGGLVQAGGSLRLSCAASGSTFEYNAMGWYRQAPGKEREFVAASSRTGSRTYYADSVKGRFTISRDNAKHTVYLQMNSLKPEDTAVYYCAVSVPYGMDYWGQGTQLTVSS | high polyreactivity |
| QVQLVESGGGLVQAGGSLRLSCAASGSTFEYNAMGWYRQAPGKERELVAAISRTANANYADSVKGRFTISRDNAKNTFYLQMNSLKPEETAVYYCAADFLDSKVHVRFGYWGQGTQVTVSS | low polyreactivity |
| QVQLVESGGGLVQAGGSLRLSCAASGSTFEYYAMGWYRQAPGKEREFVAAITSTGGSTHYADSVKGRFTISRDNAKNTVYLQMNSLKPEDTAVYVCGKRSYGQTRAYSAGNYWGQGNQVTVSS | low polyreactivity |
| QVQLVESGGGLVQAGGSLRLSCAASGSTFEYYAMGWYRQAPGKERELVAAISTGGSTYYADSVKGRFTISRDNAKNTVYLQMNSLKPEDTAVYYCAALYRTSYVRMGYWGQGTQVTVSS | high polyreactivity |
| QVQLVESGGGLVQAGGSLRLSCAASGSTFFFNAMGWYRQAPGKERELVAAITGSGGSTYYADSVKGRFTISRDNAKNTVYLQMNSLKPEDTAVYYCNASSPYDYDWGQGTQVTVSS | low polyreactivity |
| QVQLVESGGGLVQAGGSLRLSCAASGSTFFFNAMGWYRQAPGKERELVAAITVRSGSTYYADSVKGRFTISRDNAKSTVYLQMNSLKPEDTAVYFCAADYSPGRSVVDYWGQGTQVTVSS | low polyreactivity |
| QVQLVESGGGLVQAGGSLRLSCAASGSTFFFYAMGWYRQAPGKERELVAAISSGGTTDYADSVKGRFTISRDNAKNTVYLQMNSLKPEDTAVYYCAATYVYWTWGYDYWGQGTQVTVSS | low polyreactivity |
| QVQLVESGGGLVQAGGSLRLSCAASGSTFFGNAMGWYRQAPGKERELVAAITSGGSTNYADSVKGRFTFSRDNAKNTVSLQMNSLKPEDTAVYDCAKPSRWGWTGFYAYDYWGQGTQVTVSS | low polyreactivity |
| QVQLVESGGGLVQAGGSLRLSCAASGSTFFGYAMGWYREAPGKERELVAAISSRGGSTYYADSVKGRFTISRDNAKKTVYLQMNSLKPEDTAVYYCNKVYHYPYYYWGQGTQVTVSS | high polyreactivity |
| QVQLVESGGGLVQAGGSLRLSCAASGSTFFGYAMGWYRQAPGKERELVAAITSGGSTNYADSVKGRFTISRDNAKNTVYLQMNRLIPDDTAVYFCARRWYRGYGYWGQGTQVTVSS | high polyreactivity |
| QVQLVESGGGLVQAGGSLRLSCAASGSTFFIYAMGRYRQAPGKERELVAAISGSGGTTYYADSVKGRFTISRDNAKNTVYLQMNSLKPEDTAVYYCAARTFSAFWRGGYDYWGQGTQVTVSS | low polyreactivity |
| QVQLVESGGGLVQAGGSLRLSCAASGSTFFIYAMGWYRQAPGKERELVAVIRNIDVRTYYADSVKGRFTISRDNAKNTVYLQMNSLKPEDTAVYYCAADELLDESVDMYYWGQGTQVTVSS | low polyreactivity |
| QVQLVESGGGLVQAGGSLRLSCAASGSTFFLYMGWYRQAHGKERELVAAITVSGGSTYYADSVKGRFTISRDNAKNTVYLQMNSLKPEDTAVYYCNADWVMRYDYWGQGTQVTVSS | low polyreactivity |
| QVQLVESGGGLVQAGGSLRLSCAASGSTFFNYAMGWYRQAPGKEREFVARIRWRGGSTYYADSVKGRFTISRDNAKNTVYLQMNSLKPEDTAVYYCNADYWGHGGLYDYWGQGTQVTVSS | high polyreactivity |

| Sequence | polyreactivity (PSR sort gate) |
| --- | --- |
| QVQLVESGGGLVQAGGSLRLSCAASGSTFFNYAMGWYRQAPGKERELVAAISSSGGRTYYADSVKGRFTISRDNAKNTVYLQMNSLKPEDTAVYYCAASGRKNGMNYWGQGTQVTVSS | high polyreactivity |
| QVQLVESGGGLVQAGGSLRLSCAASGSTFFPYAMGWYRQAPGKERELVAAIRWSGGRTYYADSVKGRFTISRDNAKNTVYLQMNSLKPEDTAVYYCAADKYLYYDYWGQGTQVTVSS | high polyreactivity |
| QVQLVESGGGLVQAGGSLRLSCAASGSTFFPYAMGWYRQAPGKERELVAAIRWSGGRTYYADSVKGRFTISRDNAKNTVYLQMNSLKPEDTAVYYCAAEKYLDYDYWGQGTQVTVSS | high polyreactivity |
| QVQLVESGGGLVQAGGSLRLSCAASGSTFFPYAMGWYRQAPGKERELVAAITSGGRTKYADSVKGRFTISRDNAKNTVYLQMNSLKPEDTAVYYCAARGLIKEYGGPYRRFGYWGQGTQVTVSS | high polyreactivity |
| QVQLVESGGGLVQAGGSLRLSCAASGSTFFPYAMGWYRQAPGKERELVAGISSDGGTSYADSVKGRFTISRDNAKNTVYLQMNSLKPEDTAVYYCAARGLLWYYSWRYYYWGQGTQVTVSS | low polyreactivity |
| QVQLVESGGGLVQAGGSLRLSCAASGSTFFRNAMGWYRQAPGKERELVAAITWSGGSTYYADSVKGRFTISRDNAKNTVYLQMNSLKPEDTAVYYCAAGLSYWTPHYYPFDYWGQGTQVTVSS | low polyreactivity |
| QVQLVESGGGLVQAGGSLRLSCAASGSTFFRYAMGWYRPAPGKEREFVAAISKRGGSTHYADSVKGRFTISRDNAKNTVYLQMNSLKPEDTAVYYCAASSFTSSYNFWGQGTQVTVSS | high polyreactivity |
| QVQLVESGGGLVQAGGSLRLSCAASGSTFFRYAMGWYRQAPGKEREFVAAITWSGTGTYYADSVKGRFTISRDNAENTVYLQMNSLKPEDTAVYYCNAEPFDLWAFYYGYVYGYYHWGQGTQVTVSS | high polyreactivity |
| QVQLVESGGGLVQAGGSLRLSCAASGSTFFRYAMGWYRQAPGKEREFVAAITWSGTGTYYADSVKGRFTISRDNAKNTVYLQMNSLKPEDTAVYYCNADPFDLWAFYYGYVYGYYHWGQGTQVTVSS | high polyreactivity |
| QVQLVESGGGLVQAGGSLRLSCAASGSTFFRYAMGWYRQAPGKEREFVAAITWSGTGTYYADSVKGRFTISRDNAKNTVYLQMNSLKPEDTAVYYCNAEPFDLWAFYYGYVYGYYHWGQGTQVTVSS | high polyreactivity |
| QVQLVESGGGLVQAGGSLRLSCAASGSTFFSNAMGWSRQAPGKERELVAAISWSGGSTYYADSVKGRFTISRDNAKNTVYLQMNSLKPEDTAVYYCAASFWTDYYRYDYWGQGSQVTVSS | low polyreactivity |
| QVQLVESGGGLVQAGGSLRLSCAASGSTFFSNAMGWYRQAPGKERELVATIRFGGGSTYADSVKGRFTISRDNAKNTVYLQMNSLIPEDTAVYYCAADDSDKRYTRSWYGYWGQGTQVTVSS | low polyreactivity |
| QVQLVESGGGLVQAGGSLRLSCAASGSTFFSYTMGWSRQAPGKEWELVAAITWSAGTTYYADSVKGRFTISRDNAKNTVYLQMNSLKPEDTAVYYCNADLSRYPTAVRMDYWGQGTQVTVSS | low polyreactivity |
| QVQLVESGGGLVQAGGSLRLSCAASGSTFFTNAMGWYRQAPAKERELVAVITKRGGSTYYADSVKGRFTISRDKAKNTVYLQMNSLKPEDTAVYYCAARIPKQQGYGYWGHGTQVTVSS | high polyreactivity |
| QVQLVESGGGLVQAGGSLRLSCAASGSTFFVYAMGWYRQAPGNESEFVAAISKSGGSTYYADSEKGRFTISRDNAKNTVYLQMNSLKPEDTAVYYCAKYSGVNSIVGNDYWGQGTQVTVSS | high polyreactivity |
| QVQLVESGGGLVQAGGSLRLSCAASGSTFFVYDMGWYRQAPGKERELVAAISSGGTTTYADSVKGRFTISRDNAKNTVNLQMNSLKPEDTAVYYCNARQYTRPYAFDYWGQGTQVTVSS | low polyreactivity |
| QVQLVESGGGLVQAGGSLRLSCAASGSTFFVYDMGWYRQAPGKEREMVAAISISDGGTYYADSVKWRFTISRDNAKNYVYLQMNSLKPEDTAVYYCADDYSERYFRGYVYLGQGTQVTVSS | low polyreactivity |
| QVQLVESGGGLVQAGGSLRLSCAASGSTFFYNAMGWYRQAPGKERELVAAITVTGTSTYYADSVKGRFTISRDNAKNTVYLQMNSLKPEDTGVYYCNTSLKRRRLRFNYWGQGTQVTVSS | low polyreactivity |
| QVQLVESGGGLVQAGGSLRLSCAASGSTFFYYAMGWYRQAPGKERELVAAISGGGGDTTYADSVKGRFTISRDNAKNTVYLQMNSLKPEDTAVYYCAAVPGSFGSGIFDYWGQGTQATVSS | low polyreactivity |
| QVQLVESGGGLVQAGGSLRLSCAASGSTFFYYAMGWYRQAPGKERELVAAITRGSRTKYADSVKGRFTISRDNAKNTVYLQMNSLKPEDTAVYYCAARKNLYPYCYLWWQDYDYWVQGTQVTVSS | high polyreactivity |
